According to the supplement of paper PMC7877785:
± gives the uncertainty stated by the source.

Assay: self-splicing fitness, log relative to wild type (ln ratio); higher = more splicing; Tetrahymena group I intron in knt gene, E. coli kanamycin selection, DiMSum; sequences stand for … in CUCUCU…GGAGGGAAAAGUUAUCAGGCAUGCACCUGGUAGCUAGUCUUUAAACCAAUAGAUUGCAUCGGUUUAAAAGGCAAGACCGUCAAAUUGCGGGAAAGGGGUCAACAGCCGUUCAGUACCAAGUCUCAGGGGAAACUUUGAGAUGGCCUUGCAAAGGGUAUGGUAAUAAGCUGACGGACAUGGUCCUAACCACGCAGCCAAGUCCUAAGUCAACAGAUCUUCUGUUGAUAUGGAUGCAGUUCACAGACUAAAUGUCGGUCGGGGAAGAUGUAUUCUUCUCAUAAGAUAUAGUCGGACCUCUCCUUAAUGGGAGCUAGCGGAUGAAGUGAUGCAACACUGGAGCCGCUGGGAACUAAUUUGUAUGCGAAAGUAUAUUGAUUAGUUUUGGAGUACUCGUGGUCG
Method in brief: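 DiMSum derived fitness as the error-weighted combination of fold changes across replicates, kanamycin versus no kanamycin, normalised to wild type. E. coli BL21(DE3) held the library, which randomised all eight P1ex-region intron nucleotides within the knt kanamycin-resistance gene on pET-22b(+). Six replicate transformations grew overnight at 37°C or 30°C on LB agar with or without 25 μg/mL kanamycin, also containing 100 μg/mL carbenicillin, 50 μM IPTG and 0.2% rhamnose, and pooled colonies were amplicon-sequenced on an Illumina HiSeq 2500.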

Sequence	self-splicing fitness (ln) (30 °C)	self-splicing fitness (ln) (37 °C)
GGCCAGCAAUAUUACGUUAC	-2.01 ± 0.12	-0.532 ± 0.15
GGCCAGCAAUAUUACGUUGA	-2.04 ± 0.12	-1.27 ± 0.12
GGCGAGCAAUAUUACGACAA		-1.05 ± 0.34
GGCGAGCAAUAUUACGACGG	-3.28 ± 0.38	-3.37 ± 0.47
GGCGAGCAAUAUUACGACUC	-0.185 ± 0.14	0.173 ± 0.24
GGCGAGCAAUAUUACGCAGA	-3.15 ± 0.4	-2.31 ± 0.23
GGCGAGCAAUAUUACGCAGG	-2.43 ± 0.23	-2.75 ± 0.33
GGCGAGCAAUAUUACGGCAU	-0.523 ± 0.13	0.0629 ± 0.15
GGCGAGCAAUAUUACGGGAA	-2.55 ± 0.3	-1.74 ± 0.43
GGCGAGCAAUAUUACGGGCG	-0.296 ± 0.12	0.0537 ± 0.14
GGCGAGCAAUAUUACGGUCA	0.0811 ± 0.15	-0.103 ± 0.13
GGCGAGCAAUAUUACGGUCU	-1.89 ± 0.2	-1.03 ± 0.21
GGCGAGCAAUAUUACGGUGA	-2.82 ± 0.089	-1.39 ± 0.081
GGCGAGCAAUAUUACGGUGC	-2.76 ± 0.16	-1.86 ± 0.23
GGCGAGCAAUAUUACGUAGU	-1.57 ± 0.13	-0.422 ± 0.14
GGCGAGCAAUAUUACGUGCC		-2.25 ± 0.45
GGCGAGCAAUAUUACGUUCG	-3.74 ± 0.27	-1.59 ± 0.3
GGCGAGCAAUAUUACGUUUG	-2.31 ± 0.21	-2.78 ± 0.38
GGCUAGCAAUAUUACGAACU	-0.723 ± 0.25	0.433 ± 0.25
GGCUAGCAAUAUUACGAGCG	-1.17 ± 0.14	-0.288 ± 0.17

Sequence	self-splicing fitness (ln) (30 °C)	self-splicing fitness (ln) (37 °C)
GGCUAGCAAUAUUACGAUCU	-0.432 ± 0.1	0.129 ± 0.12
GGCUAGCAAUAUUACGCAUG	-1.11 ± 0.11	-1.04 ± 0.11
GGCUAGCAAUAUUACGCAUU	-0.352 ± 0.074	0.553 ± 0.086
GGCUAGCAAUAUUACGCCUG	-3.72 ± 0.29	-1.95 ± 0.23
GGCUAGCAAUAUUACGCGCG	-0.69 ± 0.14	0.174 ± 0.17
GGCUAGCAAUAUUACGCUGC	-3.21 ± 0.19	-2.65 ± 0.19
GGCUAGCAAUAUUACGGAAG	-1.13 ± 0.11	-0.386 ± 0.14
GGCUAGCAAUAUUACGGACC	-1.67 ± 0.14	-0.619 ± 0.2
GGCUAGCAAUAUUACGGACU	-0.601 ± 0.081	0.198 ± 0.098
GGCUAGCAAUAUUACGGAGC	-3.22 ± 0.22	-2.25 ± 0.26
GGCUAGCAAUAUUACGGAGG	-3.21 ± 0.26	-1.58 ± 0.2
GGCUAGCAAUAUUACGGAUC	-0.815 ± 0.23	0.314 ± 0.2
GGCUAGCAAUAUUACGGCAA	0.218 ± 0.07	-0.682 ± 0.086
GGCUAGCAAUAUUACGGCAC	0.203 ± 0.13	-0.036 ± 0.14
GGCUAGCAAUAUUACGGGUA	-0.679 ± 0.12	-0.368 ± 0.11
GGCUAGCAAUAUUACGUAGG	-1.96 ± 0.14	-1.78 ± 0.13
GGCUAGCAAUAUUACGUAUA	-1.27 ± 0.22	-0.659 ± 0.19
GGCUAGCAAUAUUACGUCCU	-1.68 ± 0.1	-1.3 ± 0.13
GGCUAGCAAUAUUACGUUAG	-3.51 ± 0.32	-0.919 ± 0.24
